B1: BCL2L13 (parent)
chain: YIIQQGGWGTVFSLESEEEEYPGI
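Further: lentivirally expressed fusions sorted by FACS into six bins by GFP to DsRed ratio, PSI derived from sequencing read proportions per bin multiplied by bin number.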

In the data set the parent is B1. Nature of the data set: protein stability index of a GFP-peptide fusion (GPS, HEK-293T) (PSI 1-6); higher = more stable. The conditions noted are these: c terminus: a fixed tail appended.
For YIIQQGGWGTVFFLESEEEEYPGI [S13F], the protein stability index is 2.46.
In the case of YIIQQGGWGTVFTLESEEEEYPGI [S13T], the protein stability index worked out at 1.62.
Consider YIIQQGGWGTVFVLESEEEEYPGI [S13V], for which the protein stability index is 2.28.
To YIIQWGGWGTVFSLESEEEEYPGI [Q5W] belongs 2.16; to YIIQRGGWGTVFSLESEEEEYPGI [Q5R], 1.92.
To YIIQEGGWGTVFSLESEEEEYPGI [Q5E] belongs 1.33; to YIIQGGGWGTVFSLESEEEEYPGI [Q5G], 1.69; to YIIQNGGWGTVFSLESEEEEYPGI [Q5N], 1.73.
To YIIQTGGWGTVFSLESEEEEYPGI [Q5T] belongs 1.72; to YIIQMGGWGTVFSLESEEEEYPGI [Q5M], 1.67.
YIIQQGGWGTVFSLECEEEEYPGI [S16C]: the protein stability index came out at 3.01.
Under YIIQQGGWGTVFSLEAEEEEYPGI [S16A] stands 1.69; under YIIQQGGRGTVFSLESEEEEYPGI [W8R], 2.37.
To YIIQQGGYGTVFSLESEEEEYPGI [W8Y] belongs 2.84.
Regarding YIIQQGGPGTVFSLESEEEEYPGI [W8P], the protein stability index amounted to 2.97.
Under YIIQQGGDGTVFSLESEEEEYPGI [W8D] stands 2.56.
On to YIIQQGGFGTVFSLESEEEEYPGI [W8F], for which the protein stability index was determined as 2.83.
To YIIQQGGAGTVFSLESEEEEYPGI [W8A] belongs 2.02; to YIIQQGGLGTVFSLESEEEEYPGI [W8L], 1.99.
As for YIIQQGGTGTVFSLESEEEEYPGI [W8T], the protein stability index amounted to 2.84.
On to YIIQQGGNGTVFSLESEEEEYPGI [W8N], for which the protein stability index was found to be 3.09.
Under YIIQQGGIGTVFSLESEEEEYPGI [W8I] stands 1.66.
On to YIIQQGGQGTVFSLESEEEEYPGI [W8Q], for which the protein stability index was 3.93.
YIIQQGGCGTVFSLESEEEEYPGI [W8C]: the protein stability index is 2.31.
Under YIIQQGGMGTVFSLESEEEEYPGI [W8M] stands 1.88; under YIIQQGGEGTVFSLESEEEEYPGI [W8E], 3.31; under YIIQQGGSGTVFSLESEEEEYPGI [W8S], 3.17.
For the variant YIIQQGGHGTVFSLESEEEEYPGI [W8H], the protein stability index came to 2.81.
Under YIIQQGGKGTVFSLESEEEEYPGI [W8K] stands 2.1.
Under YIIQQGGGGTVFSLESEEEEYPGI [W8G] stands 2.58; under YIIQQGGVGTVFSLESEEEEYPGI [W8V], 1.53.
To YIIQQGGWGTVFSLTSEEEEYPGI [E15T] belongs 1.67; to YIIQQGGWGTVFSLSSEEEEYPGI [E15S], 2.81.
As to YIIQQGGWGTVFSLLSEEEEYPGI [E15L], the protein stability index amounted to 2.57.
For YIIQQGGWGTVFSLNSEEEEYPGI [E15N], the protein stability index was 2.34.
To YIIQQGGWGTVFSLKSEEEEYPGI [E15K] belongs 1.27; to YIIQQGGWGTVFSLGSEEEEYPGI [E15G], 1.82.
Under YIIQQGGWGTVFSLFSEEEEYPGI [E15F] stands 2.92.
YIIQQGGWGTVFSLQSEEEEYPGI [E15Q]: the protein stability index came out at 2.31.
To YIIQQGGWGTVFSLMSEEEEYPGI [E15M] belongs 3.49; to YIIQQGGWGTVFSLPSEEEEYPGI [E15P], 2.02.
To YIIQQGGWGTVFSRESEEEEYPGI [L14R] belongs 1.87.
Under YIIQQGGWGTVFSYESEEEEYPGI [L14Y] stands 1.84; under YIIQQGGWGTVFSQESEEEEYPGI [L14Q], 1.78; under YIIQQGGWGTVFSKESEEEEYPGI [L14K], 1.5.
Take YIIQQGGWGTVFSVESEEEEYPGI [L14V]: the protein stability index is 1.98.
To YIIQQGGWGTVFSPESEEEEYPGI [L14P] belongs 1.87; to YIIQQGGWGTVFSTESEEEEYPGI [L14T], 2.2.
With YIIQQGGWGTVFSIESEEEEYPGI [L14I], the protein stability index turned out to be 1.76.
Under YIIQQGGWGTVFSEESEEEEYPGI [L14E] stands 2.57; under YIIQQGGWGTVFSSESEEEEYPGI [L14S], 2.23.
As for YIIQQGGWGTVFSDESEEEEYPGI [L14D], the protein stability index worked out at 2.21.
To YIIQQGGWGTVFSHESEEEEYPGI [L14H] belongs 1; to YIIQQGGWGTVFSWESEEEEYPGI [L14W], 1.06.
To YIIQQGGWGTVASLESEEEEYPGI [F12A] belongs 2.5.
Under YIIQQGGWGTVSSLESEEEEYPGI [F12S] stands 2.03; under YIIQQGGWGTVLSLESEEEEYPGI [F12L], 1.81; under YIIQQGGWGTVKSLESEEEEYPGI [F12K], 2.39.
For YIIQQGGWGTVESLESEEEEYPGI [F12E], the protein stability index is 2.66.
To YIIQQGGWGTVMSLESEEEEYPGI [F12M] belongs 2.98; to YIIQQGGWGTVHSLESEEEEYPGI [F12H], 1.75; to YIIQQGGWGTVVSLESEEEEYPGI [F12V], 1.65.
Under YIIQQGGWGTVISLESEEEEYPGI [F12I] stands 1.64.
Under YIIQQGGWGTVTSLESEEEEYPGI [F12T] stands 2.13.
YIIQQGGWGTVQSLESEEEEYPGI [F12Q]: the protein stability index was 1.24.
Under YIIQQGGWGTVDSLESEEEEYPGI [F12D] stands 2.35; under YIIQQGGWGTVRSLESEEEEYPGI [F12R], 1.83; under YIIQQGGWGTVNSLESEEEEYPGI [F12N], 1.56.
For the variant YIIQQGGWGTVPSLESEEEEYPGI [F12P], the protein stability index turned out to be 1.58.
Under YIIQQGSWGTVFSLESEEEEYPGI [G7S] stands 1.46; under YIIQQGYWGTVFSLESEEEEYPGI [G7Y], 3.6; under YIIQQGAWGTVFSLESEEEEYPGI [G7A], 2.35.
For YIIQQGLWGTVFSLESEEEEYPGI [G7L], the protein stability index is 1.82.
Under YIIQQGEWGTVFSLESEEEEYPGI [G7E] stands 1.74; under YIIQQGIWGTVFSLESEEEEYPGI [G7I], 2.58.
To YIIQQGQWGTVFSLESEEEEYPGI [G7Q] belongs 2.85.
Under YIIQQGRWGTVFSLESEEEEYPGI [G7R] stands 1.73; under YIIQQGHWGTVFSLESEEEEYPGI [G7H], 2.14; under YIIQQGDWGTVFSLESEEEEYPGI [G7D], 1.87.
For YIIQQGNWGTVFSLESEEEEYPGI [G7N], the protein stability index worked out at 1.05.
Under YIIQQGTWGTVFSLESEEEEYPGI [G7T] stands 1.45.
On to YIIQQGKWGTVFSLESEEEEYPGI [G7K], for which the protein stability index is 2.06.
To YIIQQGPWGTVFSLESEEEEYPGI [G7P] belongs 1.58.
To YIIQQGCWGTVFSLESEEEEYPGI [G7C] belongs 1.72; to YIIQQGGWGNVFSLESEEEEYPGI [T10N], 2.35.
Turning to YIIQQGGWGRVFSLESEEEEYPGI [T10R], the protein stability index amounted to 1.6.
Under YIIQQGGWGPVFSLESEEEEYPGI [T10P] stands 1.07; under YIIQQGGWGMVFSLESEEEEYPGI [T10M], 1.4.
To YIIQQGGWGHVFSLESEEEEYPGI [T10H] belongs 1.11; to YIIQQGGWGFVFSLESEEEEYPGI [T10F], 2.42.
Under YIIQQGGWGIVFSLESEEEEYPGI [T10I] stands 3.06.
YIIQQGGWGEVFSLESEEEEYPGI [T10E]: the protein stability index stood at 1.17.
For the variant YIIQQGGWGDVFSLESEEEEYPGI [T10D], the protein stability index is 1.31.
For the variant YIIQQGGWGSVFSLESEEEEYPGI [T10S], the protein stability index stood at 2.34.

Values taken from the supplement of paper PMC10567573.
